9 molecules from patent US20240084003A1 (SIMCERE ZAIMING PHARMACEUTICAL, published 2024) can be followed below.

Test [1] concerns the target T1, human CD22-ECD-His protein (human, UniProt P20273 20-687).
T1 construct: Made in house in HEK293E; also called hCD22-ECD-His; recombinant human CD22-ECD His protein; not shown: His tag
T1 sequence: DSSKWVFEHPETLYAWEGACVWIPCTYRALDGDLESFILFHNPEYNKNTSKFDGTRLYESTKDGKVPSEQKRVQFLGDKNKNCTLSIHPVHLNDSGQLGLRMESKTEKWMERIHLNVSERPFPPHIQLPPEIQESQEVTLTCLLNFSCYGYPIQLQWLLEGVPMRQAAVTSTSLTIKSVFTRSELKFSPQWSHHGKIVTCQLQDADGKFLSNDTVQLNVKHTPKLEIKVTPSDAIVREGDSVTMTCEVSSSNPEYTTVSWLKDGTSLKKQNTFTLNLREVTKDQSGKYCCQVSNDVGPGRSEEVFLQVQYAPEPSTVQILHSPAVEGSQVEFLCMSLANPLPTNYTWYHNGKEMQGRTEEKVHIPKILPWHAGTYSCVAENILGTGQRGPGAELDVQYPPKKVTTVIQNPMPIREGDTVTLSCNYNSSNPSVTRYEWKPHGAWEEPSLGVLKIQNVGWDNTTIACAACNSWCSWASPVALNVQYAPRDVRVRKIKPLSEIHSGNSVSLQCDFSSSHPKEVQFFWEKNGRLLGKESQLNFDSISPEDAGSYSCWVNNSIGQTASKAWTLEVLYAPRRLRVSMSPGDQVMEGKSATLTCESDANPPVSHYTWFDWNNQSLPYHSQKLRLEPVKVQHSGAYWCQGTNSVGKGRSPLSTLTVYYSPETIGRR
Kind of test: ELISA, Ab 100.00 nM. The gist of the method:
(§1)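 Coat: CD22-ECD-His 2 μg/mL PBS, 4 °C o/n. Block PBS/2% BSA 2 h RT. Ab 2 h 37 °C; HRP 2° 2 h 37 °C; TMB 30 min RT, 1.0 N HCl stop.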

For test [2], the target named is T1, human CD22-ECD-His protein. As to the kind of experiment: ELISA, Ab 0.00001 nM. Put shortly:
as §1
In general terms: In an ELISA, binding on a coated surface is turned into a signal by an enzyme label.

In test [3] the target is T2, monkey CD22 protein (ACROBiosystems, SI2-R52Ha) (monkey (rhesus monkey in paragraph 148), UniProt H9G1X2 18-686).
T2 construct: extracellular domain; also called monkey CD22-ECD; monkey CD22-ECD-His
T2 sequence: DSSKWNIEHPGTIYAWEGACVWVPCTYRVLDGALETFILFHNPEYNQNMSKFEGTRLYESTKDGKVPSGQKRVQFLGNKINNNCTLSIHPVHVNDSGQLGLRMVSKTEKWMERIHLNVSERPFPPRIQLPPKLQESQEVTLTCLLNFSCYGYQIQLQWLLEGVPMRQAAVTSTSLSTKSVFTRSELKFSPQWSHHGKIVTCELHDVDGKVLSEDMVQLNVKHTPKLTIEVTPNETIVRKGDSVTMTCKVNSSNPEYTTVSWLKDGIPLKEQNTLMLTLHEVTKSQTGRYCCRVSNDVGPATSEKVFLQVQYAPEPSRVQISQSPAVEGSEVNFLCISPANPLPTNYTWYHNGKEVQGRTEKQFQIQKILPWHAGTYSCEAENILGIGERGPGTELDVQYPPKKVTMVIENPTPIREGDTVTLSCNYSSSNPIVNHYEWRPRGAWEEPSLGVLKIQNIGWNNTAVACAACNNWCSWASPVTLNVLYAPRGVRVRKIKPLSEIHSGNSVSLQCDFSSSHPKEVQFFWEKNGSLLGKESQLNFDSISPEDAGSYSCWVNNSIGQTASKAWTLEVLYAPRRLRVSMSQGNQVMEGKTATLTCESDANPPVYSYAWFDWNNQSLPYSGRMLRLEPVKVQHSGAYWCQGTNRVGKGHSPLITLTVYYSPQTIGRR
Kind of test: ELISA, monkey CD22-ECD-His coated. The gist of the method: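 First, CD22 (2 μg/mL, PBS) was coated at 4° C overnight. Second, wells were blocked with PBS containing 2% BSA for 2 h at room temperature. Third, antibody and then HRP secondary were each incubated 2 h at 37° C. Finally, TMB colour was stopped with HCl.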

Another test has as its target T3, human CD22 domain1-4-His (human, UniProt P20273 20-425).
T3 construct: also called hCD22 domain1-4-His; not shown: His tag
T3 sequence: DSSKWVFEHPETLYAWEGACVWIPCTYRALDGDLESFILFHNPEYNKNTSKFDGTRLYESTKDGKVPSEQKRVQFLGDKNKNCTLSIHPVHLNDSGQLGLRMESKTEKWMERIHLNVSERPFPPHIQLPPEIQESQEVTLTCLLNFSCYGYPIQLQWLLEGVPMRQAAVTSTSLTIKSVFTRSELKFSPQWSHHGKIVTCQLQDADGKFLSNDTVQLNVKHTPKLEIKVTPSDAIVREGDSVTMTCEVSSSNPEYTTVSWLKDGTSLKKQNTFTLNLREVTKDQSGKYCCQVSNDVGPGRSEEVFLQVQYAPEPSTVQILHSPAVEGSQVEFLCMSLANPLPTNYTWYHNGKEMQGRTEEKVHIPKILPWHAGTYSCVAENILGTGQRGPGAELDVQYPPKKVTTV
As to the kind of experiment: ELISA, human CD22 domain1-4-His coated.

A further test has as its target T4, human CD22 domain5-7-His (human, UniProt P20273 414-687).
T4 construct: also called hCD22 domain5-7-His; not shown: His tag
T4 sequence: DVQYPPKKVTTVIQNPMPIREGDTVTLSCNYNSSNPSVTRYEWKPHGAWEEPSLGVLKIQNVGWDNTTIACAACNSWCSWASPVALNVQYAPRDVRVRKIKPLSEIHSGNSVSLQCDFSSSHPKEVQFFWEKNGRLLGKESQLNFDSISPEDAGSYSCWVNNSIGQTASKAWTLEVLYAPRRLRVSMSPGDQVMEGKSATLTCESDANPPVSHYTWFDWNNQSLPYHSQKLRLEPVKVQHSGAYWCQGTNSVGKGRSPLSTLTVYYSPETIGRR
Kind of test: ELISA, human CD22 domain5-7-His coated.

B1: F1.105.11 (antibody, human IgG1, kappa, V domains shown)
VH: EVQLQQSGPVLVKPGASVKMSCKASGYTFSDYFMNWVKQSHGKSLEWIGIINSYSGGTSYNQKFKGKATLTVDKSSSTAYMELNSLTSEDSAVYYCARWMDYWGQGTSVTVSS
VL: DVQITQSPSYLAASPGETITINCRTSESISKHLAWYQEKPGKTNKLLIYSGSTLQSGIPSRFSGSGSGTDFTLTISSLEPEDFAMYYCQQHNEYPWTFGGGTKLEIKR
notes: Human-murine chimeric IgG1, kappa
One may read the EC50 (read off the curve) as the concentration at which the effect is half-maximal. Turning to B1, the OD450 in test [1] was found to be 2.79 OD450; in test [2], 0.08 OD450. For the same molecule, the “EC50 (read off the curve)” value (in test [3]; with human CD22 domain5-7-His) was around 0.1 nM in each case. The binding result in the test with human CD22 domain1-4-His is reported as “no binding (tested: 100 nM)”.

B2: F1.224.1 (antibody, human IgG1, kappa, V domains shown)
VH: EVLLHQSGPELVKPGASVKISCKASGYTFTDFNMDWVRQRHGQSLEWIGDVNPNNGGTIYNQKFKGKATLTVDKSSSTVYMDLRSLTSDDTAVYYCVRLGTSDYGEAWFISWGQGTVVTVSA
VL: DIVLTQSPASLAVSLGQRATISCRASQSVSTPRYSFMHWYQQKPGQPPKLLIKYASNLESGFPARFTGSGSGTDFTLNIHPVEEEDTAAYYCQQSWAIPWTFGGGTKLEIKR
notes: as for B1
Consider B2, for which the OD450 in test [1] was 3.12 OD450; in test [2], 0.17 OD450. Moreover, the entries for the “EC50 (read off the curve)” value (in test [3]; with human CD22 domain1-4-His) were around 0.04 nM and around 0.03 nM, respectively. Further, the binding result with human CD22 domain5-7-His was “no binding (tested: 100 nM)”.

B3: F1.216.2 (antibody, human IgG1, kappa, V domains shown)
VH: QVQLQQSGPEVVRPGASVKISCKASGYAFSSSWMNWMKQRPGKALEWIGRIYPGDGDTNYSGEFKVKATLTADKSSSTAYMQLSSLTSEDSAVYFCAREGSYYSNPWYFDYWGQGTTLTVSS
VL: DVLVTQTPLSLPVSLGDQASISCRSSQSIVQSNGDTYLEWYLQKPGQSPKLLIYKVSNRFSGVPDRFSGSGSGTDFTLKISRVEAEDLGVYYCFQGSHVPFTFGSGTKLEIKR
notes: as for B1
Regarding B3, the OD450 was found to be 2.69 OD450 in test [1] and 0.2 OD450 in test [2]. Moreover, the “EC50 (read off the curve)” value in test [3] is around 0.01 nM; with human CD22 domain1-4-His, around 0.02 nM. Moreover, in the test with human CD22 domain5-7-His, the binding result is listed as “no binding (tested: 100 nM)”.

B4: F1.280.1 (antibody, human IgG1, kappa, V domains shown)
VH: QIQLVQSGPELKKPGETVKISCKASGYTFTTYGMSWVKQTPGKGLTWMGWINTDSGVPTYADDFKRRFAFSLEASATTAYLQINNLKNEDTATYFCARGGPDYWGQGTTLTVSS
VL: DILLTQSPATLSVTPGETVSLSCRASQSIYKNLHWYHQKSHRSPRLLIKYASDSISGIPSRFTGSGSGTNFTLSINSVKPEDEGIYYCLQGYIVPLTFGAGTKLELKR
notes: as for B1
For B4, the figures for the OD450 in test [1] and in test [2] were 2.46 OD450 and 0.13 OD450, respectively. In addition, the “EC50 (read off the curve)” value with human CD22 domain1-4-His is around 0.05 nM. In addition, the binding result with human CD22 domain5-7-His was “no binding (tested: 100 nM)”.

B5: F1.200.11 (antibody, human IgG1, kappa, V domains shown)
VH: QNQLVQSGPELKKPGETVKISCKASGYTFTTAGMQWVQKMPGKGFKWIGWINTLSGEPKYAEDFKGRFAFSLETSATTAYLQISNLKNEDTATYFCARAYYSNLYWYFDVWGTGTTVTVSS
VL: DIVMTQSQKFMSTTVGDRVTITCKASQNVVTAVAWYQQKPGQSPKVLIYSASNRYSGVPDRFTGSGSGTDFTLTISNMHSEDLANYFCHQYSSYPFTFGSGTKLEIKR
notes: as for B1
Take B5: the results for the OD450 in test [1] and in test [2] were 2.34 OD450 and 0.33 OD450, respectively. The “EC50 (read off the curve)” value is around 1 nM in test [3] and around 0.03 nM with human CD22 domain5-7-His. Further, the binding result with human CD22 domain1-4-His is given as “no binding (tested: 100 nM)”.

B6: F1.257.3 (antibody, human IgG1, kappa, V domains shown)
VH: QVQLQQSGPELARPGASVKLSCKASGYTFTSYGISWVKQRTGQDLEWIGEIYPKLGTTYYNEKFKDKATLTTDRSSSTAYMALRSLTSEDSAVYFCACPHYYATRGGDYWGQGTTLTVSS
VL: EIVLTQSPATLSVTPGDSVTFSCRASQSISNHLHWYQQKSHESPRLLIRYASQSISGIPSRFSGSGSGTDFTLSLSSVETEDFGVYFCQQSHSWPYTFGGGTKLEIAR
notes: as for B1
In the case of B6, the OD450 in test [1] was 2.83 OD450; in test [2], 0.2 OD450. Besides, the “EC50 (read off the curve)” value with human CD22 domain1-4-His is around 0.3 nM. The binding result with human CD22 domain5-7-His is “no binding (tested: 100 nM)”.

B7: F2.180.16 (antibody, human IgG1, lambda, V domains shown)
VH: EVKLVESGGGLVLPGGSLKISCAASGFTFSDYYMYWIRQTPDKRLEWVAYISNTGYSTFYPDSVKGRFTVSRDNAKNTLYLQMSRLQSEDTAMYYCARHGILYAMDYWGQGTSVTVSS
VL: QPVLTQSSSASFSLGASAKLTCTLSSQYSTYTIGWYQQQPLKPPKYVMELKHDGSRHTGDGIPDRFSGSSSGADRYLSISNIQPEDEATYICGVGDTIKEQFMYVFGGGTKVTVLG
notes: Human-murine chimeric IgG1, lambda
Regarding B7, the OD450 stood at 2.61 OD450 in test [1] and 0.21 OD450 in test [2]. Also, the binding result (in test [3]; with human CD22 domain1-4-His) was “no binding (tested: 100 nM)” in each case.

B8: HA22-hIgG1 (antibody, V domains shown)
VH: EVQLVESGGGLVKPGGSLKLSCAASGFAFSIYDMSWVRQTPEKCLEWVAYISSGGGTTYYPDTVKGRFTISRDNAKNTLYLQMSSLKSEDTAMYYCARHSGYGTHWGVLFAYWGQGTLVTVSA
VL: DIQMTQTTSSLSASLGDRVTISCRASQDISNYLNWYQQKPDGTVKLLIYYTSILHSGVPSRFSGSGSGTDYSLTISNLEQEDFATYFCQQGNTLPWTFGCGTKLEIKR
Take B8: the OD450 in test [1] is 2.65 OD450; in test [2] it was 0.19 OD450. The “EC50 (read off the curve)” value in test [3] is around 0.05 nM; with human CD22 domain1-4-His, around 0.06 nM. Further, the binding result with human CD22 domain5-7-His is on record as “no binding (tested: 100 nM)”.

B9: F1.120.15 (antibody, human IgG1, kappa, V domains shown)
VH: QVQLQQSGPELVKPGASVKISCKASGNAFSNSWMNWVKQRPGKGLEWIGRVYSEDGDTQYNGKFRDKATLTADRSTSTAYMQLSSLTSEDSAVYFCARWLIYYGTYGAMDYWGQGTSVTVSS
VL: DIQMTQTTSSLSASLGDRVTISCRASQDINNYLNWYHQKPDGTVKLLIYFTSRPYSGVPSRFSGSGSGTDYSLTISNLEQEDIATYFCQQGNTLPWTFGGGTKLEIKR
notes: as for B1
For B9, the OD450 in test [1] turned out to be 2.89 OD450; in test [2] it was 0.12 OD450. In addition, the “EC50 (read off the curve)” value (in test [3]; in the test with human CD22 domain1-4-His) was around 0.2 nM in each case. The binding result with human CD22 domain5-7-His is listed as “no binding (tested: 100 nM)”.
